Data: paper PMC4826291

Target: BG505 SOSIP.664 gp140 trimer (HIV-1 (strain BG505)) (UniProt Q2N0S6)
Experiment: negative-stain EM

## CH235 Fab
  stoichiometry N (Fabs per trimer): 1
